Results from article PMC3215730.

Experiments:
[1] = target: Baculovirus-produced recombinant purified active human Src (kinase assays) (human) (UniProt P12931); assay: kinase activity titration (filter-binding Src kinase assay, kinetic fit)
[2] = target: Baculovirus-produced recombinant purified active human Src (kinase assays) (human) (UniProt P12931); assay: kinase activity titration (filter-binding Src kinase assay, kinetic fit); apparent; increasing RIL alone titrated in the Src kinase reaction with peptide and ATP substrates

Molecule	Kd [1] [nM]	Kd [2] [nM]	Kd RIL in the presence of F4 (Δ225–230) [1] [nM]	Kd RIL in the presence of F6 (Δ221–230) [1] [nM]
NS1 wild type (230 aa) from A/Turkey/Italy/977/99 H7N1 (F3) (natural protein)	400	–	–	–
recombinant human GST-tagged RIL (natural protein) MPHSVTLRGPSPWGFRLVGGRDFSAPLTISRVHAGSKAALAALCPGDLIQAINGESTELMTHLEAQNRIKGCHDHLTLSVSRPEGRSWPSAPDDSKAQAHRIHIDPEIQDGSPTTSRRPSGTGTGPEDGRPSLGSPYGQPPRFPVPHNGSSEATLPAQMSTLHVSPPPSADPARGLPRSRDCRVDLGSEVYRMLREPAEPVAAEPKQSGSFRYLQGMLEAGEGGDWPGPGGPRNLKPTASKLGAPLSGLQGLPECTRCGHGIVGTIVKARDKLYHPECFMCSDCGLNLKQRGYFFLDERLYCESHAKARVKPPEGYDVVAVYPNAKVELV	–	80	230	470
